From the supplement of paper PMC10724198
± gives the standard deviation of the averaged measurements.

What follows are sequences tested on Saccharomyces cerevisiae (assay: protein stability index of tFT-peptide fusion (C-terminal peptide) (PSI (0-1 scale)); higher = more stable (slower turnover)). Settings: genetic background: wild type; temperature: 30 C.
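Note: PSI is a weighted mean of sequencing reads over stability bins, variants kept only with over 10 reads, mCherry proximal and sfGFP distal, peptide attached via GGGS linker.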

| Sequence | protein stability index |
| --- | --- |
| PPLPRPPLPTSL | 0.649 ± 0.045 |
| PPLPYPCPPVFV | 0.581 ± 0.012 |
| PPLRPPAPEPSP | 0.659 ± 0.0092 |
| PPLSHPPPPLPL | 0.681 ± 0.037 |
| PPLSLRPDLPVF | 0.649 ± 0.0098 |
| PPLSPPHRPPHS | 0.71 ± 0.065 |
| PPLSPSLPPSPS | 0.681 ± 0.0089 |
| PPLTSSVCFSLI | 0.665 ± 0.098 |
| PPNGAATTQDRL | 0.699 ± 0.011 |
| PPNPSTPSACPP | 0.717 ± 0.052 |
| PPPAPLPLPAST | 0.645 ± 0.019 |
| PPPAPLRSLSTP | 0.701 ± 0.024 |
| PPPAPPPPLPPR | 0.688 ± 0.028 |
| PPPAPRPPLSLP | 0.621 ± 0.017 |
| PPPAPSPLPLFP | 0.7 ± 0.045 |
| PPPAPTQTALPP | 0.7028 ± 0.0057 |
| PPPATNSLPGFE | 0.672 ± 0.0099 |
| PPPAWTPPPRTA | 0.7163 ± 0.001 |
| PPPDHSPPPCPP | 0.6857 ± 0.0037 |
| PPPDSSLPLGSP | 0.688 ± 0.0081 |
| PPPGPLFPSFPL | 0.663 ± 0.051 |
| PPPGPNPPSSPS | 0.758 ± 0.036 |
| PPPGPRQRPPPH | 0.665 ± 0.087 |
| PPPHASLSHCHS | 0.687 ± 0.11 |
| PPPHGPPPPPLP | 0.648 ± 0.055 |
| PPPHHPIMPAKQ | 0.63 ± 0.027 |

| Sequence | protein stability index |
| --- | --- |
| PPPHPPLPTFDP | 0.707 ± 0.05 |
| PPPHPPPLAIPP | 0.767 ± 0.075 |
| PPPISPRPPRRA | 0.708 ± 0.0094 |
| PPPLCSIPPILL | 0.705 ± 0.034 |
| PPPLHPPPPPPA | 0.704 ± 0.037 |
| PPPLLPHLLLPP | 0.611 ± 0.12 |
| PPPLLSHPFLPP | 0.69 ± 0.057 |
| PPPLPAPPFSVF | 0.649 ± 0.028 |
| PPPLPLPPITPT | 0.53 ± 0.078 |
| PPPLPPGPALPL | 0.732 ± 0.012 |
| PPPLPPICTRPI | 0.627 ± 0.099 |
| PPPLPPPILLRF | 0.598 ± 0.024 |
| PPPLPPPPLPGL | 0.676 ± 0.0084 |
| PPPLPPPSPCPL | 0.702 ± 0.018 |
| PPPLPPSPLLPP | 0.701 ± 0.019 |
| PPPLPRPFPPFP | 0.697 ± 0.019 |
| PPPLPSPLPLPP | 0.644 ± 0.033 |
| PPPLRLPQSRLP | 0.722 ± 0.09 |
| PPPLSPFTTPPS | 0.7493 ± 0.00077 |
| PPPLSQSPPSRR | 0.612 ± 0.029 |
| PPPLTSPPHPPP | 0.724 ± 0.029 |
| PPPPAPPPAPPP | 0.558 ± 0.019 |
| PPPPAPYPNYYS | 0.542 ± 0.0062 |
| PPPPCPSYLPPS | 0.693 ± 0.046 |
| PPPPFAAALSTP | 0.69 ± 0.039 |
| PPPPFLCSPFVA | 0.6905 ± 0.00081 |

| Sequence | protein stability index |
| --- | --- |
| PPPPGLPSSPPP | 0.625 ± 0.051 |
| PPPPHAPSASPP | 0.668 ± 0.022 |
| PPPPHSFTPSGH | 0.673 ± 0.12 |
| PPPPLPASHPSP | 0.707 ± 0.044 |
| PPPPLPHPALPP | 0.675 ± 0.04 |
| PPPPLPPLPGTL | 0.657 ± 0.045 |
| PPPPLPPPPVLT | 0.7 ± 0.051 |
| PPPPLPPPSPPL | 0.7319 ± 0.0043 |
| PPPPPAPPPLCY | 0.663 ± 0.045 |
| PPPPPHHRPPSS | 0.709 ± 0.077 |
| PPPPPHLPPLTP | 0.711 ± 0.054 |
| PPPPPHPRSPLS | 0.738 ± 0.037 |
| PPPPPHPTSPFP | 0.751 ± 0.048 |
| PPPPPHVHPPSP | 0.689 ± 0.042 |
| PPPPPLPALPLL | 0.84 ± 0.081 |
| PPPPPLPPPPPP | 0.593 ± 0.021 |
| PPPPPLSLLLPP | 0.703 ± 0.032 |
| PPPPPNPIPPTF | 0.713 ± 0.028 |
| PPPPPPLLPPPA | 0.7302 ± 0.0037 |
| PPPPPPLPAPPH | 0.693 ± 0.029 |
| PPPPPPPFCLAP | 0.718 ± 0.0079 |
| PPPPPPPHSSLS | 0.709 ± 0.0078 |
| PPPPPPPLAPPL | 0.685 ± 0.021 |
| PPPPPPPLPHPP | 0.595 ± 0.058 |
| PPPPPPPLRFIF | 0.618 ± 0.035 |
| PPPPPPPPFSHS | 0.712 ± 0.022 |

| Sequence | protein stability index |
| --- | --- |
| PPPPPPPPLPAP | 0.664 ± 0.018 |
| PPPPPPPPPLLP | 0.7031 ± 0.006 |
| PPPPPPPPPSTP | 0.744 ± 0.016 |
| PPPPPPPPRRPP | 0.595 ± 0.047 |
| PPPPPPPRGPPR | 0.627 ± 0.014 |
| PPPPPPPRPLTP | 0.68 ± 0.059 |
| PPPPPPPSPPFS | 0.783 ± 0.031 |
| PPPPPPPSSPPP | 0.732 ± 0.012 |
| PPPPPPQTPRPR | 0.683 ± 0.061 |
| PPPPPPSPLPPY | 0.703 ± 0.01 |
| PPPPPPSPPRLP | 0.592 ± 0.03 |
| PPPPPPTPPSLS | 0.7449 ± 0.001 |
| PPPPPRPRSLLS | 0.711 ± 0.063 |
| PPPPPSSRPLSN | 0.627 ± 0.079 |
| PPPPPTPPPARP | 0.695 ± 0.054 |
| PPPPPVLPNRIP | 0.781 ± 0.04 |
| PPPPQPTAPPNP | 0.717 ± 0.049 |
| PPPPSLLPLSLP | 0.608 ± 0.02 |
| PPPPSPPLTRSL | 0.783 ± 0.08 |
| PPPPTLPPPPLS | 0.722 ± 0.14 |
| PPPPTTATRQQT | 0.691 ± 0.016 |
| PPPQLRPLPQSL | 0.704 ± 0.018 |
| PPPQYILPPRFP | 0.691 ± 0.017 |
| PPPRPCRAPAAA | 0.668 ± 0.089 |
| PPPRPGLPAPVP | 0.683 ± 0.05 |
| PPPRPLPVLFLP | 0.611 ± 0.06 |

| Sequence | protein stability index |
| --- | --- |
| PPPRPPHAPFSL | 0.702 ± 0.039 |
| PPPRPPHGPLPY | 0.658 ± 0.037 |
| PPPRPPPPSCPP | 0.685 ± 0.092 |
| PPPRPPRPPLPS | 0.727 ± 0.02 |
| PPPRPTPAPPRV | 0.65 ± 0.032 |
| PPPRSPLFSLPP | 0.678 ± 0.032 |
| PPPSALPPLPQP | 0.712 ± 0.01 |
| PPPSCPPPPSRS | 0.7754 ± 0.0068 |
| PPPSHSLPSLPI | 0.626 ± 0.033 |
| PPPSLPPLPSPS | 0.725 ± 0.027 |
| PPPSLPPPSATA | 0.689 ± 0.087 |
| PPPSLSPAPAPP | 0.736 ± 0.027 |
| PPPSPCHPPSPP | 0.67 ± 0.12 |
| PPPSPPDCLPLP | 0.649 ± 0.086 |
| PPPSPPLPRHLA | 0.746 ± 0.06 |
| PPPSPPSVPRAS | 0.643 ± 0.027 |
| PPPSRPPQLHPA | 0.605 ± 0.021 |
| PPPSSPPTHLTS | 0.678 ± 0.012 |
| PPPSSPTPPHSR | 0.738 ± 0.082 |
| PPPSTRSNPGLD | 0.745 ± 0.028 |
| PPPSVPPSLTPP | 0.693 ± 0.03 |
| PPPTHPTSTSSI | 0.699 ± 0.02 |
| PPPTLPPPSPFP | 0.705 ± 0.038 |
| PPPTPKITPMSI | 0.6871 ± 0.0018 |
| PPPTPPSRILPA | 0.699 ± 0.016 |
| PPPTPRPAFLPP | 0.6969 ± 0.0037 |

| Sequence | protein stability index |
| --- | --- |
| PPPTPSDPQNSS | 0.644 ± 0.007 |
| PPPWSFPCPSAS | 0.778 ± 0.084 |
| PPPYPRSTPFVP | 0.6774 ± 0.005 |
| PPQALPHSSKQA | 0.6931 ± 0.0025 |
| PPRLHAPPPSPP | 0.716 ± 0.016 |
| PPRPLLPTPSPL | 0.7 ± 0.056 |
| PPRPLPARRLSF | 0.753 ± 0.081 |
| PPRPLPPPPPPT | 0.716 ± 0.017 |
| PPRPPPSPPLPP | 0.696 ± 0.062 |
| PPRPPSPPPPSP | 0.632 ± 0.02 |
| PPRPRPPSSPST | 0.641 ± 0.0099 |
| PPRPSPPPLPPS | 0.683 ± 0.051 |
| PPRRAPPPIRLP | 0.746 ± 0.074 |
| PPRSFLPPRFSW | 0.702 ± 0.066 |
| PPRSFPGTPLIA | 0.67 ± 0.069 |
| PPRSLPPPTSPL | 0.731 ± 0.011 |
| PPRTPFSLPPPA | 0.73 ± 0.054 |
| PPRTSPRLLPPP | 0.686 ± 0.0069 |
| PPRVFGFFPFPP | 0.774 ± 0.079 |
| PPSAPLPTLLHH | 0.722 ± 0.094 |
| PPSAPPLPPLPL | 0.69 ± 0.014 |
| PPSFLLVCPRPP | 0.6897 ± 0.0068 |
| PPSHGRSSQSPR | 0.731 ± 0.1 |
| PPSLAPPPTSRP | 0.679 ± 0.054 |
| PPSLGPHSTSCD | 0.715 ± 0.071 |
| PPSLPPLPPSPA | 0.656 ± 0.085 |

| Sequence | protein stability index |
| --- | --- |
| PPSLTPAALPAA | 0.745 ± 0.072 |
| PPSPASASPDRR | 0.695 ± 0.022 |
| PPSPELALSLGH | 0.673 ± 0.038 |
| PPSPHPSLPPPR | 0.668 ± 0.024 |
| PPSPLQGRICFV | 0.698 ± 0.032 |
| PPSPLSTLPSPH | 0.679 ± 0.045 |
| PPSPPPAFPPPA | 0.64 ± 0.059 |
| PPSPPPPPAAST | 0.768 ± 0.13 |
| PPSPPSLRSSPP | 0.744 ± 0.13 |
| PPSPPVPRFSLL | 0.69503 ± 0.00011 |
| PPSPPVRPPLLA | 0.617 ± 0.14 |
| PPSPSPPPYHFP | 0.676 ± 0.023 |
| PPSPSSLPPPPL | 0.733 ± 0.0075 |
| PPSPTPPLPSCP | 0.702 ± 0.029 |
| PPSRDRSGCISV | 0.709 ± 0.021 |
| PPSRDSHPPPPP | 0.627 ± 0.02 |
| PPSRLLFPSPPA | 0.683 ± 0.055 |
| PPSRLSPPPPPS | 0.71 ± 0.016 |
| PPSRPLPALPFP | 0.676 ± 0.097 |
| PPSRPLPSPLPP | 0.631 ± 0.03 |
| PPSRPPAPSPRS | 0.695 ± 0.037 |
| PPSRPPPARREP | 0.7 ± 0.022 |
| PPSRPSASFALL | 0.743 ± 0.026 |
| PPSSYGCGRQMP | 0.645 ± 0.038 |
| PPTAPCPPPLPP | 0.645 ± 0.012 |
| PPTFFQRSPLRP | 0.681 ± 0.033 |

| Sequence | protein stability index |
| --- | --- |
| PPTFLPLPSSPP | 0.651 ± 0.079 |
| PPTHPPLPPPLL | 0.689 ± 0.07 |
| PPTPPPNPPSRY | 0.715 ± 0.021 |
| PPTPPPPRSTPS | 0.766 ± 0.035 |
| PPTPPPVPPPWS | 0.669 ± 0.044 |
| PPTPPTARPIVL | 0.677 ± 0.018 |
| PPTRLPQGVSWR | 0.702 ± 0.066 |
| PPVLSLGPPFTS | 0.73 ± 0.11 |
| PPYFFPSDPRPD | 0.748 ± 0.067 |
| PQIVRSFLLFPP | 0.69 ± 0.0076 |
| PQPPTPLTPTPP | 0.697 ± 0.089 |
| PQSIHASIYFRL | 0.634 ± 0.02 |
| PQTYHRPPPPLH | 0.702 ± 0.028 |
| PQYLALLRTSIP | 0.739 ± 0.043 |
| PRALCPPPSPST | 0.697 ± 0.043 |
| PRAPRVSTRRPE | 0.793 ± 0.083 |
| PRASPPPLPPSP | 0.717 ± 0.032 |
| PRCSVYPITGPY | 0.682 ± 0.046 |
| PRFLGWGGCLWV | 0.7265 ± 0.0045 |
| PRGGLGTGWGRR | 0.731 ± 0.079 |
